These results are taken from patent US20190284272A1 (published 2019).

For experiment [1], the target named is T1, canine IL-31 protein (Canine_IL31) (canine).
T1 construct: Recombinant, secreted from CHO cells; also called cIL-31; canine cytokine
T1 chain: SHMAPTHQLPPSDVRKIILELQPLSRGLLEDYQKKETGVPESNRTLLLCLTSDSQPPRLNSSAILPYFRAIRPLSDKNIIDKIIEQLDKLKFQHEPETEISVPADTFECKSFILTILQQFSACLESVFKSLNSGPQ
As to the kind of experiment: SPR (Biacore), FIG. 2 Section B. The method, then:
(§1) The affinity with which candidate mAbs bind canine and feline IL-31 was determined using surface plasmon resonance (SPR) on a Biacore system (Biocore Life Sciences (GE Healthcare), Uppsala, Sweden). To avoid affinity differences associated with differential surface preparation that can occur when immobilizing antibodies to surfaces; a strategy was employed where IL-31 was directly conjugated to the surface. Immobilization was obtained by amine coupling 5 μg/mL IL-31 using N-hydroxysuccinimide (NHS)/1-Ethyl-3-(3-dimethylaminopropyl) carbodiimide (EDC) chemistry. Chips were quenched with ethanolamine and the affinity with which all candidate mAbs bound to the immobilized IL-31 was evaluated. All curves were fit to a 1:1 model. […] Results for affinity measurements are described herein.
FIG. 2 details the affinity of antibodies with CDRs derived from mouse origin using biacore. […] These observations confirm the correct sequence for both mouse antibodies and indicate conversion to the chimeric form results in antibodies with equivalent or higher affinity when compared to the mouse parent with the exception of the mouse:feline 15H05 chimera which lost some affinity to both IL-31 species as a result of its conversion to the chimeric form. […]

Experiment [2] addresses T1, canine IL-31 protein (Canine_IL31). The experiment in a line: cell-based or functional assay.
Experiment [3] deals with T2, canine IL-31 protein (Canine_IL31).
T2 chain: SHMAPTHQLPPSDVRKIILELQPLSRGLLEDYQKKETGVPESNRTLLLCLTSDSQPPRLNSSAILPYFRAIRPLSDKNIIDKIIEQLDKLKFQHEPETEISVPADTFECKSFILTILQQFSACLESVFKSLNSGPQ
As to the kind of experiment: Biacore. For orientation: SPR reads the build-up and loss of mass on a sensor chip optically.

In experiment [4] the target is T1, canine IL-31 protein (Canine_IL31). As to the kind of experiment: Biacore, canine IL-31 surface, single antibody concentration (FIG. 4). The method, then: as §1
For the indirect ELISA method, antibody binding to wildtype and feline IL-31 15H05 mutant proteins was assessed. All nine canine monoclonal antibodies (ZIL1, ZIL8, ZIL8, ZIL11, ZIL69, ZIL94, ZIL154, ZIL159, and ZIL171) were capable of binding to wildtype feline IL-31 and binding was impacted by mutations in the mAb 15H05 epitope region confirming the correct binding phenotype determined during the initial screening used to identify them. […]

B1: Feline 11E12 1.2 (antibody, V domains shown)
VH: QVLLVQSGAEVKKPGASVKIFCKASGYSFTYYDINWLRQAPEQGLEWMGWIFPGDGGTKYNETFKGRLTLTADTSTNTVYMELSSLRSADTAMYYCARGGTSVIRDAMDYWGQGALVTVSS
VL: EVVLTQSSAFLSRTLKEKATITCRASESVDNYGISFMHWYQQKPNQAPKLLVKRASNLESGAPSRFSGSGSGTDFTLTISSPEPEDAATYYCQQSNKDPLTFGQGT
notes: also called felinized 11E12 1.2
Consider B1, for which the binding result in experiment [1] is reported as “no binding”.

B2: mouse: feline 15H05 chimera (antibody)
heavy: QVQLQQSAAELARPGASVKMSCKTSGYTFTSYTIHWIKQRPGQGLEWIGNINPTSGYTENNQRFKDKTTLTVDRSSNTAYLQLHSLTSEDSAVYFCARWGFKYDGEWSFDVWGAGTTVTVSSASTTAPSVFPLAPSCGTTSGATVALACLVLGYFPEPVTVSWNSGALTSGVHTFPAVLQASGLYSLSSMVTVPSSRWLSDTFTCNVAHPPSNTKVDKTVRKTDHPPGPKPCDCPKCPPPEAAGAPSIFIFPPKPKDTLSISRTPEVTCLVVDLGPDDSDVQITWFVDNTQVYTAKTSPREEQFNSTYRVVSVLPILHQDWLKGKEFKCKVNSKSLPSPIERTISKAKGQPHEPQVYVLPPAQEELSRNKVSVTCLIKSFHPPDIAVEWEITGQPEPENNYRTTPPQLDSDGTYFVYSKLSVDRSHWQRGNTYTCSVSHEALHSHHTQKSLTQSPGK
light: DIQMNQSPSSLSASLGDTITVTCRASQGISIWLSWYQQKPGNIPKVLINKASNLHIGVPPRFSGSGSGTHFTLTITSLQPEDIATYYCLQSQTYPLTFGGGTKLEINRSDAQPSVFLFQPSLDELHTGSASIVCILNDFYPKEVNVKWKVDGVVQNKGIQESTTEQNSKDSTYSLSSTLTMSSTEYQSHEKFSCEVTHKSLASTLVKSFQRSECQRE
As to B2, in experiment [2], the “IC50 against canine IL-31 (pSTAT3 assay; cell type not clear)” value amounted to 28.6 µg/ml. The Kd (in general, the constant that tells how readily two partners part at equilibrium) in experiment [3] came to 0.0129 nM.

B3: ZIL154 (antibody, V domains shown)
VH: EVHLVESGGDLVKPWGSLRLSCVASGFTFSDRGMSWVRQSPGKGLQWVAYIRYDGSRTDYADAVEGRFTISRDNAKNTLYLQMNSLRAEDTAVYYCARWDGSSFDYWGQGTLVTVSS
VL: DIVVTQTPLSLSVSPGETASFSCKASQSLLHSDGNTYLDWFRQKPGQSPQRLIYKVSNRDPGVPDRFSGSGSGTDFTLRISGVEADDAGLYYCMQAIHFPLTFGAGTKVELKR
notes: Recombinant fully canine IgG (65_1), HEK 293; also called CAN-ZIL154
Take B3: the binding result in experiment [4] is listed as “no binding”.

B4: 15H05 mouse: canine chimera (antibody)
heavy: QVQLQQSAAELARPGASVKMSCKTSGYTFTSYTIHWIKQRPGQGLEWIGNINPTSGYTENNQRFKDKTTLTVDRSSNTAYLQLHSLTSEDSAVYFCARWGFKYDGEWSFDVWGAGTTVTVSSASTTAPSVFPLAPSCGSTSGSTVALACLVSGYFPEPVTVSWNSGSLTSGVHTFPSVLQSSGLYSLSSMVTVPSSRWPSETFTCNVAHPASKTKVDKPVPKRENGRVPRPPDCPKCPAPEMLGGPSVFIFPPKPKDTLLIARTPEVTCVVVDLDPEDPEVQISWFVDGKQMQTAKTQPREEQFNGTYRVVSVLPIGHQDWLKGKQFTCKVNNKALPSPIERTISKARGQAHQPSVYVLPPSREELSKNTVSLTCLIKDFFPPDIDVEWQSNGQQEPESKYRTTPPQLDEDGSYFLYSKLSVDKSRWQRGDTFICAVMHEALHNHYTQESLSHSPGK
light: DIQMNQSPSSLSASLGDTITVTCRASQGISIWLSWYQQKPGNIPKVLINKASNLHIGVPPRFSGSGSGTHFTLTITSLQPEDIATYYCLQSQTYPLTFGGGTKLEINRNDAQPAVYLFQPSPDQLHTGSASVVCLLNSFYPKDINVKWKVDGVIQDTGIQESVTEQDKDSTYSLSSTLTMSSTEYLSHELYSCEITHKSLPSTLIKSFQRSEC
With B4, the “IC50 against canine IL-31 (pSTAT3 assay; cell type not clear)” value in experiment [2] came to 12.5 µg/ml.
